# US20120172295A1 (INDIANA UNIVERSITY RESEARCH AND TECHNOLOGY, published 2012)
# Like-named read-outs stand apart in the source and are kept apart here. Starred links: 1 amine or outer side, 2 acyl side, 3 side chain; linkers in the order of their positions; H or OH if unused. Positions of bridges follow the written chain, without caps; N, C: chain ends. Non-standard residues stand in square brackets, D forms with d. Groups on a side chain read outwards from the residue. No end group written: not given here. *: point of attachment. γGlu = O=C(O)[C@H](CCC(=O)[*:2])N[*:1]; Palmitoyl = CCCCCCCCCCCCCCCC(=O)*; Myristoyl = CCCCCCCCCCCCCC(=O)*; Aib = CC(C)(N)C(=O)O
# T1: GIP receptor (UniProt P48546 22-466)
# T1 sequence (looked up): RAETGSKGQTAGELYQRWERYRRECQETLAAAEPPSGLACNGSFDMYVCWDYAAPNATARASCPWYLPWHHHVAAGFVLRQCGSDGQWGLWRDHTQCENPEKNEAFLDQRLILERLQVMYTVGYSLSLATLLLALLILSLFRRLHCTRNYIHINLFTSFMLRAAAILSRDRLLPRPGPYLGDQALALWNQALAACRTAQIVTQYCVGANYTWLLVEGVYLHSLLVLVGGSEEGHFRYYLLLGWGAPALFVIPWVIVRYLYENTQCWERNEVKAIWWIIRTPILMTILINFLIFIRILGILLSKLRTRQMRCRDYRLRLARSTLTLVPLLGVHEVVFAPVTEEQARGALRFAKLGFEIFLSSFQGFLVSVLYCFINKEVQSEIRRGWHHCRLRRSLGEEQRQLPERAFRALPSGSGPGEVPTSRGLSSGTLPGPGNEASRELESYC
# Key:
# Assay in all cases: cell-based or functional assay
# glucagon receptor [1] = target: T2, glucagon receptor (UniProt P47871 26-477, limits assumed)
# T2 sequence (P47871 26-477 limits assumed): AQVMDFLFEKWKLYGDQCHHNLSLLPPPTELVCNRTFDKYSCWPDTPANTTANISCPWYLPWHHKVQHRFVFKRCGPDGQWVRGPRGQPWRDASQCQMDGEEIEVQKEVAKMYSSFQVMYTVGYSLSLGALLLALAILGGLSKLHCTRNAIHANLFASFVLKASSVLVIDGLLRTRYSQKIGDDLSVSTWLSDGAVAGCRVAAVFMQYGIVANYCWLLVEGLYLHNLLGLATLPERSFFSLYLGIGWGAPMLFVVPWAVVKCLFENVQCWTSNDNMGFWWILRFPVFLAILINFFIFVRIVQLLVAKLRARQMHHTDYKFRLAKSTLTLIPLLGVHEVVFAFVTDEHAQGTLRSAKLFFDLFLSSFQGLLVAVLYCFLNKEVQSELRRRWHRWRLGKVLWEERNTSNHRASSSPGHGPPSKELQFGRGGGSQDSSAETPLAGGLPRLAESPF
# GLP-1 receptor [2] = target: T3, GLP-1 receptor (UniProt P43220 24-463, limits assumed)
# GIP receptor [3] = target: T1, GIP receptor
# glucagon receptor [4] = target: T2, glucagon receptor; remark: listed apart in the source
# GLP-1 receptor [5] = target: T3, GLP-1 receptor; remark: listed apart in the source
# GIP receptor [6] = target: T1, GIP receptor; remark: listed apart in the source
# glucagon receptor [7] = target: T2, glucagon receptor; remark: listed apart in the source
# glucagon receptor [8] = target: T2, glucagon receptor; remark: listed apart in the source
# glucagon receptor [9] = target: T2, glucagon receptor; remark: listed apart in the source
# GLP-1 receptor [10] = target: T3, GLP-1 receptor; remark: listed apart in the source
# GIP receptor [11] = target: T1, GIP receptor; remark: listed apart in the source
# glucagon receptor [12] = target: T2, glucagon receptor; remark: listed apart in the source
# GLP-1 receptor [13] = target: T3, GLP-1 receptor; remark: listed apart in the source
binder,measurement,setting,value
H[Aib]QGTFTSDYSKYLD[Aib]QAAKEFICWLMNGGPSSGAPPPSK(Myristoyl)-NH2 (N-terminus assumed; SMILES CCCCCCCCCCCCCC(=O)NCCCC[C@H](NC(=O)[C@H](CO)NC(=O)[C@@H]1CCCN1C(=O)[C@@H]1CCCN1C(=O)[C@@H]1CCCN1C(=O)[C@H](C)NC(=O)CNC(=O)[C@H](CO)NC(=O)[C@H](CO)NC(=O)[C@@H]1CCCN1C(=O)CNC(=O)CNC(=O)[C@H](CC(N)=O)NC(=O)[C@H](CCSC)NC(=O)[C@H](CC(C)C)NC(=O)[C@H](Cc1c[nH]c2ccccc12)NC(=O)[C@H](CS)NC(=O)[C@@H](NC(=O)[C@H](Cc1ccccc1)NC(=O)[C@H](CCC(=O)O)NC(=O)[C@H](CCCCN)NC(=O)[C@H](C)NC(=O)[C@H](C)NC(=O)[C@H](CCC(N)=O)NC(=O)C(C)(C)NC(=O)[C@H](CC(=O)O)NC(=O)[C@H](CC(C)C)NC(=O)[C@H](Cc1ccc(O)cc1)NC(=O)[C@H](CCCCN)NC(=O)[C@H](CO)NC(=O)[C@H](Cc1ccc(O)cc1)NC(=O)[C@H](CC(=O)O)NC(=O)[C@H](CO)NC(=O)[C@@H](NC(=O)[C@H](Cc1ccccc1)NC(=O)[C@@H](NC(=O)CNC(=O)[C@H](CCC(N)=O)NC(=O)C(C)(C)NC(=O)[C@@H](N)Cc1c[nH]cn1)[C@@H](C)O)[C@@H](C)O)[C@@H](C)CC)C(N)=O) [mt-347],% Relative activity,glucagon receptor [1],111%
same,EC50,glucagon receptor [1],0.0317 nM
same,% Relative activity,GLP-1 receptor [2],67.1%
same,EC50,GLP-1 receptor [2],0.0082 nM
same,% Relative activity,GIP receptor [3],0.7%
same,EC50,GIP receptor [3],0.383 nM
same,% Relative activity,glucagon receptor [4],111%
same,% Relative activity,GLP-1 receptor [5],67%
same,% Relative activity,GIP receptor [6],0.7%
H[Aib]QGTFTSDYSKYLD[Aib]QAAKEFICWLMNGGPSSGAPPPSK-NH2 (N-terminus assumed; SMILES CC[C@H](C)[C@H](NC(=O)[C@H](Cc1ccccc1)NC(=O)[C@H](CCC(=O)O)NC(=O)[C@H](CCCCN)NC(=O)[C@H](C)NC(=O)[C@H](C)NC(=O)[C@H](CCC(N)=O)NC(=O)C(C)(C)NC(=O)[C@H](CC(=O)O)NC(=O)[C@H](CC(C)C)NC(=O)[C@H](Cc1ccc(O)cc1)NC(=O)[C@H](CCCCN)NC(=O)[C@H](CO)NC(=O)[C@H](Cc1ccc(O)cc1)NC(=O)[C@H](CC(=O)O)NC(=O)[C@H](CO)NC(=O)[C@@H](NC(=O)[C@H](Cc1ccccc1)NC(=O)[C@@H](NC(=O)CNC(=O)[C@H](CCC(N)=O)NC(=O)C(C)(C)NC(=O)[C@@H](N)Cc1c[nH]cn1)[C@@H](C)O)[C@@H](C)O)C(=O)N[C@@H](CS)C(=O)N[C@@H](Cc1c[nH]c2ccccc12)C(=O)N[C@@H](CC(C)C)C(=O)N[C@@H](CCSC)C(=O)N[C@@H](CC(N)=O)C(=O)NCC(=O)NCC(=O)N1CCC[C@H]1C(=O)N[C@@H](CO)C(=O)N[C@@H](CO)C(=O)NCC(=O)N[C@@H](C)C(=O)N1CCC[C@H]1C(=O)N1CCC[C@H]1C(=O)N1CCC[C@H]1C(=O)N[C@@H](CO)C(=O)N[C@@H](CCCCN)C(N)=O) [mt-348],% Relative activity,glucagon receptor [1],8.16%
same,EC50,glucagon receptor [1],0.433 nM
same,% Relative activity,GLP-1 receptor [2],149%
same,EC50,GLP-1 receptor [2],0.0037 nM
same,% Relative activity,GIP receptor [3],0.15%
same,EC50,GIP receptor [3],1.76 nM
same,% Relative activity,glucagon receptor [4],8.2%
same,% Relative activity,GLP-1 receptor [5],149%
same,% Relative activity,GIP receptor [6],0.2%
Y[Aib]EGTFTSDYSIYLDKQAA[Aib]EFVNWLLAGGPSSGAPPPSK(Palmitoyl) [mt-261],% Relative activity,glucagon receptor [4],13.4%
same,% Relative activity,glucagon receptor [7],31.6%
HSQGTFTSDYSKYLDSRRAQDFVQWLMNTGPSSGAPPPS (C-terminal amide) [Glucagon-Cex],cAMP induction EC50,glucagon receptor [8],0.25 nM
H[Aib]QGTFTSDK([γGlu-γGlu-Palmitoyl])SKYLD[Aib]RRAQDFVQWLMNTGPSSGAPPPS-NH2 (N-terminus assumed; SMILES CCCCCCCCCCCCCCCC(=O)N[C@@H](CCC(=O)N[C@@H](CCC(=O)NCCCC[C@H](NC(=O)[C@H](CC(=O)O)NC(=O)[C@H](CO)NC(=O)[C@@H](NC(=O)[C@H](Cc1ccccc1)NC(=O)[C@@H](NC(=O)CNC(=O)[C@H](CCC(N)=O)NC(=O)C(C)(C)NC(=O)[C@@H](N)Cc1c[nH]cn1)[C@@H](C)O)[C@@H](C)O)C(=O)N[C@@H](CO)C(=O)N[C@@H](CCCCN)C(=O)N[C@@H](Cc1ccc(O)cc1)C(=O)N[C@@H](CC(C)C)C(=O)N[C@@H](CC(=O)O)C(=O)NC(C)(C)C(=O)N[C@@H](CCCNC(=N)N)C(=O)N[C@@H](CCCNC(=N)N)C(=O)N[C@@H](C)C(=O)N[C@@H](CCC(N)=O)C(=O)N[C@@H](CC(=O)O)C(=O)N[C@@H](Cc1ccccc1)C(=O)N[C@H](C(=O)N[C@@H](CCC(N)=O)C(=O)N[C@@H](Cc1c[nH]c2ccccc12)C(=O)N[C@@H](CC(C)C)C(=O)N[C@@H](CCSC)C(=O)N[C@@H](CC(N)=O)C(=O)N[C@H](C(=O)NCC(=O)N1CCC[C@H]1C(=O)N[C@@H](CO)C(=O)N[C@@H](CO)C(=O)NCC(=O)N[C@@H](C)C(=O)N1CCC[C@H]1C(=O)N1CCC[C@H]1C(=O)N1CCC[C@H]1C(=O)N[C@@H](CO)C(N)=O)[C@@H](C)O)C(C)C)C(=O)O)C(=O)O) [Peptide 901],% Relative activity,glucagon receptor [9],560%
same,% Relative activity,GLP-1 receptor [10],460%
same,% Relative activity,GIP receptor [11],8.65%
H[Aib]QGTFTSDYSKYLD[Aib]RRAQDFVQWLMNTGPSSGAPPPSK([γGlu-γGlu-Palmitoyl])-NH2 (N-terminus assumed; SMILES CCCCCCCCCCCCCCCC(=O)N[C@@H](CCC(=O)N[C@@H](CCC(=O)NCCCC[C@H](NC(=O)[C@H](CO)NC(=O)[C@@H]1CCCN1C(=O)[C@@H]1CCCN1C(=O)[C@@H]1CCCN1C(=O)[C@H](C)NC(=O)CNC(=O)[C@H](CO)NC(=O)[C@H](CO)NC(=O)[C@@H]1CCCN1C(=O)CNC(=O)[C@@H](NC(=O)[C@H](CC(N)=O)NC(=O)[C@H](CCSC)NC(=O)[C@H](CC(C)C)NC(=O)[C@H](Cc1c[nH]c2ccccc12)NC(=O)[C@H](CCC(N)=O)NC(=O)[C@@H](NC(=O)[C@H](Cc1ccccc1)NC(=O)[C@H](CC(=O)O)NC(=O)[C@H](CCC(N)=O)NC(=O)[C@H](C)NC(=O)[C@H](CCCNC(=N)N)NC(=O)[C@H](CCCNC(=N)N)NC(=O)C(C)(C)NC(=O)[C@H](CC(=O)O)NC(=O)[C@H](CC(C)C)NC(=O)[C@H](Cc1ccc(O)cc1)NC(=O)[C@H](CCCCN)NC(=O)[C@H](CO)NC(=O)[C@H](Cc1ccc(O)cc1)NC(=O)[C@H](CC(=O)O)NC(=O)[C@H](CO)NC(=O)[C@@H](NC(=O)[C@H](Cc1ccccc1)NC(=O)[C@@H](NC(=O)CNC(=O)[C@H](CCC(N)=O)NC(=O)C(C)(C)NC(=O)[C@@H](N)Cc1c[nH]cn1)[C@@H](C)O)[C@@H](C)O)C(C)C)[C@@H](C)O)C(N)=O)C(=O)O)C(=O)O) [Peptide 900],% Relative activity,glucagon receptor [9],560%
same,% Relative activity,GLP-1 receptor [10],383%
same,% Relative activity,GIP receptor [11],2.89%
HSQGTFTSDYSKYLDERRAKDFVQWLMNT-NH2 (lactam 16-20; N-terminus assumed; SMILES CSCC[C@H](NC(=O)[C@H](CC(C)C)NC(=O)[C@H](Cc1c[nH]c2ccccc12)NC(=O)[C@H](CCC(N)=O)NC(=O)[C@@H](NC(=O)[C@H](Cc1ccccc1)NC(=O)[C@H](CC(=O)O)NC(=O)[C@@H]1CCCCNC(=O)CC[C@H](NC(=O)[C@H](CC(=O)O)NC(=O)[C@H](CC(C)C)NC(=O)[C@H](Cc2ccc(O)cc2)NC(=O)[C@H](CCCCN)NC(=O)[C@H](CO)NC(=O)[C@H](Cc2ccc(O)cc2)NC(=O)[C@H](CC(=O)O)NC(=O)[C@H](CO)NC(=O)[C@@H](NC(=O)[C@H](Cc2ccccc2)NC(=O)[C@@H](NC(=O)CNC(=O)[C@H](CCC(N)=O)NC(=O)[C@H](CO)NC(=O)[C@@H](N)Cc2c[nH]cn2)[C@@H](C)O)[C@@H](C)O)C(=O)N[C@@H](CCCNC(=N)N)C(=O)N[C@@H](CCCNC(=N)N)C(=O)N[C@@H](C)C(=O)N1)C(C)C)C(=O)N[C@@H](CC(N)=O)C(=O)N[C@H](C(N)=O)[C@@H](C)O) [E16K20 Gluc-NH2 Lac],Percent Potency Relative to Native Ligand,glucagon receptor [12],181%
same,Percent Potency Relative to Native Ligand,GLP-1 receptor [13],63%
